Data taken from patent US20250197503A1, “ANTI-HUMAN PD-Ll AND TLR7 DOUBLE-TARGETING NANOBODY CONJUGATE DRUG AND USE THEREOF IN RESISTING TUMOR” (SHANGHAI INSTITUTE OF MATERIA MEDICA , CHINESE ACADEMY OF …, priority 2022, published 2025).

Target: human PD-L1 (human) (UniProt Q9NZQ7)
Assay: FACS blocking of human PD-1/PD-L1 binding

human PD-L1 (human), sequence (Q9NZQ7 19-290): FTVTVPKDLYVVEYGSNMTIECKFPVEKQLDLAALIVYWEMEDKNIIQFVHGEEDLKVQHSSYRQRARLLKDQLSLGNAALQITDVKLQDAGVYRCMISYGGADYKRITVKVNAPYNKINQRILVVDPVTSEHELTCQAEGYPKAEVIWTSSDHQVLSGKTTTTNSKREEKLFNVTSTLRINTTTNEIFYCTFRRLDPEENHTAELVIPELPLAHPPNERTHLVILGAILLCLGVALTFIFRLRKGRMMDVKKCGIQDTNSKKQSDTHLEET

Substance KN035 has an IC50 of 0.208 µg/mL.
